Data on three substances can be found in US20090192084A1.

Targets include Praja 2 (human) (UniProt O43164); Cullin 4B (human) (UniProt Q13620); Cullin 3 (human) (UniProt Q13618); UBR1 (human) (UniProt Q8IWV7).
Holding throughout (test): Flag co-IP, MudPIT MS, MG132
The target of assay [1] is Ubiquitin conjugation factor E4 B, UBE4B (Ufd2ortholog) (human) (UniProt O95155).
In assay [2] the target is Kelch repeat and BTB domain-containing protein 7, KBTB7 (human) (UniProt Q8WVZ9).
The target of assay [3] is CUL4- and DDB I-associated WDR protein 2, WDR26 (human) (UniProt Q9H7D7).
Assay [4] has as its target RING-box protein 1, RBX1 (human) (UniProt P62877).
The target of assay [5] is Von Hippel-Lindau disease tumor suppressor, VHL (human) (UniProt P40337).
Von Hippel-Lindau disease tumor suppressor, VHL (human), sequence (P40337 whole entry): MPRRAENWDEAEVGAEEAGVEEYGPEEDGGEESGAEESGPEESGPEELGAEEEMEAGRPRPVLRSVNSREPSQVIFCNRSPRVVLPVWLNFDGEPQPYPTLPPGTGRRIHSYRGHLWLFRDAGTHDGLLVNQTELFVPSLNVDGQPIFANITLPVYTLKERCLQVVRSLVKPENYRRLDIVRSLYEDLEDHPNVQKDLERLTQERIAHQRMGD
Assay [6] has as its target DDB1- and CUL4-associated factor I. VprBP (human) (UniProt Q9Y4B6).
Assay [7] concerns the target Bromodomain and WD-repeat domain-containing protein 2, WDR 1 I (human) (UniProt Q9BZH6).
Assay [8] has as its target E3 ubiquitin-protein ligase Topors (human) (UniProt Q9NS56).
Assay [9] addresses Kelch domain-containing protein 3, KLDC3 (human) (UniProt Q9BQ90).
In assay [10] the target is CUL3-interacting protein I. KLHL12 (human) (UniProt Q53G59).
CUL3-interacting protein I. KLHL12 (human), sequence (Q53G59 whole entry, the tested form may be a part): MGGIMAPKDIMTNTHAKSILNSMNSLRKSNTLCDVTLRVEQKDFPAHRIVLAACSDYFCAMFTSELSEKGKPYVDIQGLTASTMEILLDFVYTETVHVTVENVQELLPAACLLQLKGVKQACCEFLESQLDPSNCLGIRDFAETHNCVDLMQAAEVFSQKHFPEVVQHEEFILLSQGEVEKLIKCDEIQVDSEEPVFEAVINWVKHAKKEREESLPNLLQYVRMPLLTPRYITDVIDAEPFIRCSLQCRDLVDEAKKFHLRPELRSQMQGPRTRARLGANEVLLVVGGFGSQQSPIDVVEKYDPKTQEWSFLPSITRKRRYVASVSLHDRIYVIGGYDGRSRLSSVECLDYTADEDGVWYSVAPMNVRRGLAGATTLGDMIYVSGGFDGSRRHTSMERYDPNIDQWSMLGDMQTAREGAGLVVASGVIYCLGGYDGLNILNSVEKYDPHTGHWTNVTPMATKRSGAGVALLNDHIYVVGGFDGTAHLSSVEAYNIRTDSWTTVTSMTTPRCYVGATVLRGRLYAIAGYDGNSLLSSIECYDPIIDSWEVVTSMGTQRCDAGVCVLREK
The target of assay [11] is Kelch domain-containing protein 2, KLDC2 (human) (UniProt Q9Y2U9).
Assay [12] deals with Galectin-3 binding protein. LG3BP (human) (UniProt Q08380).
Assay [13] concerns the target RING finger protein 126. RNE126 (human) (UniProt Q9BV68).

Ubiquitin conjugation factor E4 B, UBE4B (Ufd2ortholog) (human), sequence (O95155 whole entry, the tested form may be a part): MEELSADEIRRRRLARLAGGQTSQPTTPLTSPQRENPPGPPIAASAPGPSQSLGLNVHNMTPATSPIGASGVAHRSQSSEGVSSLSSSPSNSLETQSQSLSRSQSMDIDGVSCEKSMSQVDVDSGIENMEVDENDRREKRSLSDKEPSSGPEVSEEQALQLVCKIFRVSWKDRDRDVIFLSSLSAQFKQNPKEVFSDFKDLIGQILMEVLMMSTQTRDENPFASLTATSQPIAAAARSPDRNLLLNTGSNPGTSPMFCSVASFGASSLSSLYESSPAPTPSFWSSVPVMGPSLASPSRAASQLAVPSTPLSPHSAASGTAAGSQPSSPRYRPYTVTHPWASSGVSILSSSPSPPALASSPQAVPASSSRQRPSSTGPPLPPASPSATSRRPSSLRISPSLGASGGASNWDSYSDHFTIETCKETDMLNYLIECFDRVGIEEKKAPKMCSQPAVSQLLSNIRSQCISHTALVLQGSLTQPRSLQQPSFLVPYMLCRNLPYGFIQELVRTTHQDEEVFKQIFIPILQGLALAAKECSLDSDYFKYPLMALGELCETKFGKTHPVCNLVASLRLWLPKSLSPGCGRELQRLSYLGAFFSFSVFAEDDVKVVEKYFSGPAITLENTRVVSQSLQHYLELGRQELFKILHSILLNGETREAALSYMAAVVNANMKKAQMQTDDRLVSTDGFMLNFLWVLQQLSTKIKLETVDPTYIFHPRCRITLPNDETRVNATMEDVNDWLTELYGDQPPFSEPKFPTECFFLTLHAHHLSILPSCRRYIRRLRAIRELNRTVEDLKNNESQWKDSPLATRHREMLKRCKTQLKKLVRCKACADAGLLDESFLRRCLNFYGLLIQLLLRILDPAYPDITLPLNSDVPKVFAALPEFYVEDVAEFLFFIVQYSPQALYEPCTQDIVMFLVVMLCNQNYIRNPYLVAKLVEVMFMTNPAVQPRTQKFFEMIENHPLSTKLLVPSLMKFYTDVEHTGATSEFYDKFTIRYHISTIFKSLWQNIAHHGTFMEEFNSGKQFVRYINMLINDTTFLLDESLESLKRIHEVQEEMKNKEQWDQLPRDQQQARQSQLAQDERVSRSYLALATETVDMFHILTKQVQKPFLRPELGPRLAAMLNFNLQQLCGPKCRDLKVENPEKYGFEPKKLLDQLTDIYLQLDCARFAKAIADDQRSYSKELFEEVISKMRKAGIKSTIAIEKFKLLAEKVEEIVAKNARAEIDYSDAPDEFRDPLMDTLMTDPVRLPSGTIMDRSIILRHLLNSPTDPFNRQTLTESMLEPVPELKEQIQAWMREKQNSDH
Kelch domain-containing protein 3, KLDC3 (human), sequence (Q9BQ90 whole entry, the tested form may be a part): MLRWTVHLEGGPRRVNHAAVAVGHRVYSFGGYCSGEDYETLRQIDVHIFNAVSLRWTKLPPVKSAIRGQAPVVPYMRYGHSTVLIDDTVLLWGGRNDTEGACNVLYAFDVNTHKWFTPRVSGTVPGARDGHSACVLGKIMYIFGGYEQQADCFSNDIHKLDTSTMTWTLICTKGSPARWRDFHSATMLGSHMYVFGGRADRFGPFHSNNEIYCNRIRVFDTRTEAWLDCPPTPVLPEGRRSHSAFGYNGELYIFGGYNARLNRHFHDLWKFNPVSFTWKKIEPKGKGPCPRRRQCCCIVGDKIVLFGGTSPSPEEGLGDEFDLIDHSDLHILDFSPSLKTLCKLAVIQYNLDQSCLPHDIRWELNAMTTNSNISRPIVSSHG
RING-box protein 1, RBX1 (human), sequence (P62877 whole entry): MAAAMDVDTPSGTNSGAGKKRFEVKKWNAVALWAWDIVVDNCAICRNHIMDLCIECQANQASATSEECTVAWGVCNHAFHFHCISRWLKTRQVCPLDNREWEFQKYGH
Cullin 4B (human), sequence (Q13620 other isoform, or with tags, fused parts or gaps limits assumed): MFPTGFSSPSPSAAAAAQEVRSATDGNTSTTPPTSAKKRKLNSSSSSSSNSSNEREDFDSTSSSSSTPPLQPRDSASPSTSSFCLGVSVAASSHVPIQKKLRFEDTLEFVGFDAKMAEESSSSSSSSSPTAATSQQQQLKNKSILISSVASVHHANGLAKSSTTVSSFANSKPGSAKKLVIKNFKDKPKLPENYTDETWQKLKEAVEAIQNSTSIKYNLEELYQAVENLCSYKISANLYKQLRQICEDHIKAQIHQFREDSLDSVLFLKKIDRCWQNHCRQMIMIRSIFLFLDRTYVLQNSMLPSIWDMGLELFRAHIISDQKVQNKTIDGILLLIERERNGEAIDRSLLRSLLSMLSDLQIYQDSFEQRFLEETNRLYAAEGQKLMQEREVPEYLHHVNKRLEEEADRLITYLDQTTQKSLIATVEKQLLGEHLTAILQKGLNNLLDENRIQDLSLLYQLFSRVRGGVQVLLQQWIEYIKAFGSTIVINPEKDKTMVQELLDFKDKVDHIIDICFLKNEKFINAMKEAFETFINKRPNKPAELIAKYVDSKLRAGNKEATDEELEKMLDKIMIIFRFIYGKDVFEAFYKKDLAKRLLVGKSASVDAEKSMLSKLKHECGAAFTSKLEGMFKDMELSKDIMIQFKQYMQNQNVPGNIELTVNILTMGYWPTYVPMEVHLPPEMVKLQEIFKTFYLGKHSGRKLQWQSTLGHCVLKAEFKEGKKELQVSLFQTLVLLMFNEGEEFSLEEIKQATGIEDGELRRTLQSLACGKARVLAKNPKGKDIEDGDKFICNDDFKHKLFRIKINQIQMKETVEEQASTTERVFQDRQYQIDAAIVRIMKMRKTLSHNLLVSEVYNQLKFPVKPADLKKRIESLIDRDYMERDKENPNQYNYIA
E3 ubiquitin-protein ligase Topors (human), sequence (Q9NS56 whole entry, the tested form may be a part): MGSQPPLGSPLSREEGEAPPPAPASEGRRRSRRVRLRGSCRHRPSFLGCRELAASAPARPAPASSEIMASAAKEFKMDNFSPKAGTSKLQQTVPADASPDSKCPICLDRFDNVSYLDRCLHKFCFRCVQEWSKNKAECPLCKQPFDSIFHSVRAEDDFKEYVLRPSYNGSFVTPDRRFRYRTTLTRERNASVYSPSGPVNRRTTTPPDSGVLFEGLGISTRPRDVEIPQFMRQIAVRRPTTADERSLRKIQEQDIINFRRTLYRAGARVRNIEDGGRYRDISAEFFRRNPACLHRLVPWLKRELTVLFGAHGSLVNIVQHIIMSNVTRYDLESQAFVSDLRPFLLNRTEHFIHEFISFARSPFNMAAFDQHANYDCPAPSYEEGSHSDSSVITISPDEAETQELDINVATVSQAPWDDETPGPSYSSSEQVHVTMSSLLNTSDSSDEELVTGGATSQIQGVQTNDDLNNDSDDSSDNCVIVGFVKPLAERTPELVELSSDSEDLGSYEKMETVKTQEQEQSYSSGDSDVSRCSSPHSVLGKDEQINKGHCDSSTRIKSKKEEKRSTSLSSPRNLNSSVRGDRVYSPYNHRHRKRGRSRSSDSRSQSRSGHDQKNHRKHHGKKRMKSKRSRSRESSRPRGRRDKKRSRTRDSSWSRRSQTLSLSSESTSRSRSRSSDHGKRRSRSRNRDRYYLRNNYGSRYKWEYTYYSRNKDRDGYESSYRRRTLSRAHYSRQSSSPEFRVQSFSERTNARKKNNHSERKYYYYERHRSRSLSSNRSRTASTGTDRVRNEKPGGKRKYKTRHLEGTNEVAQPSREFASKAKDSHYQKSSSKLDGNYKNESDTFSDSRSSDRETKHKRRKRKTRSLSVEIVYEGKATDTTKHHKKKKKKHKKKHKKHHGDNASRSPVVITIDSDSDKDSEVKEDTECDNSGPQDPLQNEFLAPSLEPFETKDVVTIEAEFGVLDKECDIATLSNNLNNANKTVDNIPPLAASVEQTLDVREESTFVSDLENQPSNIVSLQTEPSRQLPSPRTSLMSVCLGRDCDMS
RING finger protein 126. RNE126 (human), sequence (Q9BV68 2-311 limits assumed): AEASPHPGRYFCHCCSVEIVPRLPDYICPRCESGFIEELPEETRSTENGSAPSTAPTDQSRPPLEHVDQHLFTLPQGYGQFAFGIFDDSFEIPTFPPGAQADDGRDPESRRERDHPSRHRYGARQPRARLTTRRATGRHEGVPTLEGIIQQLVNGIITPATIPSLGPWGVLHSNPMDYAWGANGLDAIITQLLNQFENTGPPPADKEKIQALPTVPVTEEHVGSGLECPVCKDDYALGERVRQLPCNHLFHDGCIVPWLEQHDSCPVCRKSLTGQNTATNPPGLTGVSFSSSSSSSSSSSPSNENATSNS

In the assay with Praja 2 (human), Flag-SAKS1 (from UniProt Q04323 1-297) came in with an abundance factor (AF) of 1.1, a sequence count of 2 and a spectrum count of 2. In assay [1], the abundance factor (AF) was 1.5, the sequence count amounted to 5 and the spectrum count was found to be 5.
Consider Flag-UBXD7 (from UniProt O94888 1-489), for which the abundance factor (AF) in [2] was determined as 1; in assay [3], 7.2; in assay [4], 4.1; with Cullin 4B (human) it was 2.7; in [5], 2.1; in assay [6], 0.6. Also, the abundance factor (AF) in [7] worked out at 1.3; in assay [8] it was 0.6; with Cullin 3 (human), 8.4; in assay [9] it was 1.7; in assay [10], 1.2; in [11], 3.2. Further, the sequence count turned out to be 3 in assay [2]; 9 in assay [3]; 2 in assay [4]; 10 with Cullin 4B (human); 2 in assay [5]; 3 in [6]. The sequence count came to 5 in assay [7]; 3 in assay [8]; 16 with Cullin 3 (human); 3 in assay [9]; 3 in [10]; 4 in assay [11]. Also, the spectrum count is 3 in [2]; 17 in assay [3]; 2 in assay [4]; 11 with Cullin 4B (human); 2 in assay [5]; 4 in [6]. Further, the spectrum count was 7 in [7]; 3 in assay [8]; 30 in the assay with Cullin 3 (human); 3 in assay [9]; 3 in [10]; 6 in assay [11].
As to Flag-UBXD8 (from UniProt Q96CS3 1-445), the abundance factor (AF) amounted to 1.1 in [12], 1.4 in assay [13] and 0.4 in the assay with UBR1 (human). For the same substance, the figures for the spectrum count (in assay [12]; in assay [13]; with UBR1 (human)) were 3, 2 and 3, respectively. Further, the results for the sequence count (in [13]; with UBR1 (human)) were 2 and 3, respectively.
